Measured values taken from patent US20250163164A1 (LANOVA MEDICINES DEVELOPMENT, published 2025).
Changes are numbered by the printed parent chain. Where “and” joins values, the source holds several entries; their conditions need not be identical. Equal entries are not always repeated. Where two headings read alike, the source gives them in different places. One block for each binder: values may come before it.

Experiments:
[1] = biological target: T1, human interleukin 13 receptor subunit alpha 2 (IL-13RA2) (human, UniProt Q14627 27-380); experiment: FACS on A375 cells
T1 construct: whole, on cells; also called IL-13Rα2; CD213A2
T1 sequence (looked up): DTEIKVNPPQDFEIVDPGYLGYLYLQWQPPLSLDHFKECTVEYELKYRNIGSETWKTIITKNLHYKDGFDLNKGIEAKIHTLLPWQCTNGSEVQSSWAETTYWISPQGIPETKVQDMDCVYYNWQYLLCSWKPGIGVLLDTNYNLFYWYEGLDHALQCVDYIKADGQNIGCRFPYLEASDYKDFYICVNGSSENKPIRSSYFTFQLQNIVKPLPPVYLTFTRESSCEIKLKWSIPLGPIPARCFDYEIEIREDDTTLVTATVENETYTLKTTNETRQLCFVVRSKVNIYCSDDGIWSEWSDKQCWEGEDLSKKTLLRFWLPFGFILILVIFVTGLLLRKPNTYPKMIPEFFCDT
Description: (§1) A375 cells that endogenously expressed IL-13RA2, were harvested from flasks. 100 μl of 1×10⁶ cells/ml of cells were incubated with primary chimeric antibodies in 3-fold serial dilutions starting from 300 nM to 0.002 nM for 30 minutes on ice. After being washed with 200 μl of FACS buffer twice, cells were incubated with secondary antibody for 30 minutes on ice. Cells were washed with 200 μl of FACS buffer twice and analyzed by FACS.
As shown in FIG. 3 and Table 4, the chimeric antibodies bound to human IL-13RA2 at different EC50.

[2] = biological target: T1, human interleukin 13 receptor subunit …; experiment: cell-based or functional assay
[3] = biological target: T1, human interleukin 13 receptor subunit …; experiment: FACS on A375 cells; remark: listed apart in the source
Description: as §1, with “IL-13RA2” for “IL-13RA2,”, “primary” for “primary chimeric”, “4-fold” for “3-fold”, “100” for “300”, “0.006” for “0.002”

[4] = biological target: T1, human interleukin 13 receptor subunit …; experiment: FACS on A375 cells; remark: listed apart in the source
Description: as §1, with “humanized” for “chimeric”, “4-fold” for “3-fold”, “200” for “300”, “0.003” for “0.002”

EC50 [1]: 0.26 nM | Top (MFI) [1]: 16700 MFI | internalization EC50 (pHAb dye), A375 cells [2]: 3.63 nM | internalization EC50 (pHAb dye), CHO-K1/H_IL-13RA2 cells [2]: 1.38 nM | internalization EC50 (pHAb dye), HEK-293/H IL-13RA2 cells [2]: 1.78 nM | internalization Top (MFI), A375 cells [2]: 8610 MFI | internalization Top (MFI), CHO-K1/H_IL-13RA2 cells [2]: 13900 MFI | internalization Top (MFI), HEK-293/H IL-13RA2 cells [2]: 25700 MFI
B1: xi34A5G9 hIgG1 (antibody, V domains shown)
VH: EVHLQQSGPELVKPGASVKISCKTSGYTFTEYTMHWVKQSHGKSLEWIGRINPNNGIAEYKQTFKDKATLAVDKSSSTAYMEFRSLTSEDSAVYYCARGEGYGYWFAYWGQGTLVTVSA
VL: DIQMTQSPASLSASVGETVTITCRTSDNIYSYLAWYQQRQGKSPQLLVSNARTLAEGVPSRFSGSGSGTQFSLKINSLQPEDFGIYYCQHHSGTPFTFGSGTNLEIE

EC50 [3]: 0.6 nM | Top (MFI) [3]: 268000 MFI
B5: 74B5E4 (antibody, V domains shown)
VH: EVKLVESGGGLVKPGGSLRLSCAASGFTFSTYGMSWVRQTPEKRLEWVATISGGGSYTYYPDSVKGRFTISRDNAKNNLYLQMSSLRSEDTALYYCARRDLRSAMDYWGQGTSVTVSS
VL: DIVMTQSQKFMSTSVGDRVSVTCKASQNVDINVAWYQQKPGQSPKALIYSASYRYSGVPDRFTGSGSGTDFTLTISNVQSEDLAEYFCQQYNTYPLTFGGGTKLEIK
notes: purified mouse antibody

EC50 [4]: 1.12 nM and 1.51 nM
B9: 73A11E2 H4L4 hIgG1 (antibody, V domains shown)
VH: QVKLVESGAEVVKPGASVKLSCKASGFTFSSYGMSWVRQAPGQRLEWVATISGGGSYTYYPESVKGRFTITRDNSTSTLYLEMRSLRSDDTAVYYCARRDLRSAMDYWGQGTLVTVSS
VL: DIVMTQSPLSLPTTLGQPVSVSCKASQNVDINVAWYQQRPGQSPRALIYSASYRYSGVPDRFSGSGSGTDFTLTISRVEAEDVAVFFCQQYNAYPLTFGGGTKLEIK
notes: humanized, hIgG1

EC50 [4]: 0.943 nM and 1.2 nM
B10: 73A11E2 H4L1 hIgG1 (antibody, V domains shown)
VH: B9 VH
VL: DVVMTQSPLSLPVTLGQPASISCKASQNVDINVAWFQQRPGQSPRRLIYSASYRYSGVPDRFSGSGSGTDFTLKISRVEAEDVGVYYCQQYNAYPLTFGQGTKLEIK
notes: humanized, hIgG1

EC50 [4]: 2.22 nM and 1.53 nM
B11: 73A11E2 H3L2 hIgG1 (antibody, V domains shown)
VH: B9 VH with K3Q, E6Q, R44G, L81M
VL: B10 VL with V2I, F36Y, R46A, Y86F
notes: humanized, hIgG1

EC50 [4]: 1.49 nM and 1.17 nM
B12: 73A11E2 H3L3 hIgG1 (antibody, V domains shown)
VH: B9 VH with K3Q, E6Q, R44G, L81M
VL: B9 VL with V19A, V21I, A84G, F87Y
notes: humanized, hIgG1

EC50 [4]: 1.12 nM and 1.31 nM
B13: 73A11E2 H4L2 hIgG1 (antibody, V domains shown)
VH: B9 VH
VL: B10 VL with V2I, F36Y, R46A, Y86F
notes: humanized, hIgG1

EC50 [4]: 1.16 nM and 1.29 nM
B14: 73A11E2 H3L4 hIgG1 (antibody, V domains shown)
VH: B9 VH with K3Q, E6Q, R44G, L81M
VL: B9 VL
notes: humanized, hIgG1

EC50 [4]: 0.909 nM and 1.45 nM
B15: 73A11E2 H4L3 hIgG1 (antibody, V domains shown)
VH: B9 VH
VL: B9 VL with V19A, V21I, A84G, F87Y
notes: humanized, hIgG1

EC50 [1]: 0.64 nM | Top (MFI) [1]: 15500 MFI | internalization EC50 (pHAb dye), A375 cells [2]: 1.32 nM | internalization EC50 (pHAb dye), CHO-K1/H_IL-13RA2 cells [2]: 1.84 nM | internalization EC50 (pHAb dye), HEK-293/H IL-13RA2 cells [2]: 3.84 nM | internalization Top (MFI), A375 cells [2]: 6380 MFI | internalization Top (MFI), CHO-K1/H_IL-13RA2 cells [2]: 17100 MFI | internalization Top (MFI), HEK-293/H IL-13RA2 cells [2]: 28900 MFI
B18: xi51G2B3 hIgG1 (antibody, V domains shown)
VH: QVQLQQSGPELVKPGASVKISCKASGYAFSDSWMNWVKQRPGQGLEWIGRIYPGDGDTNYNGKFKGKATLTADKSSNTAYMQLSSLTSVDSAVYFCARSWNGSPWFPYWGQGTLVTVSA
VL: DVLMTQTPLSLPVSLGDQASISCRSSQTIAHRNGNTYLEWYLQKPGQSPKLLLYKVSNRFSGVPDRFSGSGSGTDFTLKISRVEAEDLGVYYCFQGSHVTWTFGGGTKLEIK

EC50 [1]: 0.88 nM | Top (MFI) [1]: 15200 MFI | internalization EC50 (pHAb dye), A375 cells [2]: 0.61 nM | internalization EC50 (pHAb dye), CHO-K1/H_IL-13RA2 cells [2]: 0.86 nM | internalization EC50 (pHAb dye), HEK-293/H IL-13RA2 cells [2]: 2.76 nM | internalization Top (MFI), A375 cells [2]: 4110 MFI | internalization Top (MFI), CHO-K1/H_IL-13RA2 cells [2]: 12700 MFI | internalization Top (MFI), HEK-293/H IL-13RA2 cells [2]: 23700 MFI
B20: xi24G6D5 hIgG1 (antibody, V domains shown)
VH: QVQLQQSGPELVKPGTSVKMSCKASGYTFTSNYIHWVKQRPGQGLEWIGWIYPGDGSIKYNEKFKGKTTLTADKSSSTVYMLLSSLTSEDSAIYFCAVLRRLDYWGQGTTLTVSS
VL: DIVLTQSPATLSVTPGDSVSLSCRASQSISNNLHWYQQKSHESPRLLIKYASQSISGIPSRFSGSGSGTDFTLSINSVETEDFGMYFCQQSNSWPLTFGAGTKLELK

The remaining lines, values behind:

B2: 34A5G9 (antibody, V domains shown)
VH: B1 VH
VL: B1 VL
notes: purified mouse antibody
EC50 [3]: 0.67 nM | Top (MFI) [3]: 248000 MFI

B3: 62A8D8 (antibody, V domains shown)
VH: B5 VH with R19K, T31S
VL: B5 VL with Y86F, T93N
notes: purified mouse antibody
EC50 [3]: 0.9 nM | Top (MFI) [3]: 334000 MFI

B4: 73A11E2 (antibody, V domains shown)
VH: B5 VH with R19K, T31S, K76R, S84N
VL: B5 VL with Y86F, T93S
notes: purified mouse antibody
EC50 [3]: 0.71 nM | Top (MFI) [3]: 223000 MFI

B6: 42E3C4 (antibody, V domains shown)
VH: B5 VH with K13R, R19K, L20I
VL: B5 VL with Y53F, T93S
notes: purified mouse antibody
EC50 [3]: 0.52 nM | Top (MFI) [3]: 235000 MFI

B7: 54A4F7 (antibody, V domains shown)
VH: B5 VH with R19K, T31S, Y107H
VL: B5 VL with K24R, A46S, T93S, K107R
notes: purified mouse antibody
EC50 [3]: 0.84 nM | Top (MFI) [3]: 268000 MFI

B8: 73A11E2 H3L1 hIgG1 (antibody, V domains shown)
VH: B9 VH with K3Q, E6Q, R44G, L81M
VL: B10 VL
notes: humanized, hIgG1
EC50 [4]: 1.07 nM and 1.37 nM

B16: 72B4H4 (antibody, V domains shown)
VH: QVQLQQPGAERVRPGASVKLSCKASGYTFTNYWMNWVKQRPEQGLEWIGRIDPYAGETHYNQKFKDKAILTVDKSSSTAYMQLRSLTSEDSAVYYCARGYGDSYGMDHWGQGTSVTVSS
VL: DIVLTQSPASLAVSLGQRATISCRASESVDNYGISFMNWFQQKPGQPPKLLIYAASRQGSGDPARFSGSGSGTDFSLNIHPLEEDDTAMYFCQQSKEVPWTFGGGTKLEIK
notes: purified mouse antibody
EC50 [3]: 0.76 nM | Top (MFI) [3]: 262000 MFI

B17: 57F8H3F1 (antibody, V domains shown)
VH: QVQLQQPGAELVRPGASVKLSCKASGYTFTNYWMNWIKQRPEQGLEWIGRIDPYETETHYNQKFRDRAILTVDKSSSTAFMQLSGLTSEDSAVYYCARGYGHYYGVDYWGQGTSVTVSS
VL: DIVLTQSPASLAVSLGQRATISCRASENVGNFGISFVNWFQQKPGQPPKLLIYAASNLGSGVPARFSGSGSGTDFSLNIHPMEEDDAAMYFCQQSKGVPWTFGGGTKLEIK
notes: purified mouse antibody
EC50 [3]: 0.7 nM | Top (MFI) [3]: 246000 MFI

B19: 51G2B3 (antibody, V domains shown)
VH: B18 VH
VL: B18 VL
notes: purified mouse antibody
EC50 [3]: 0.87 nM | Top (MFI) [3]: 243000 MFI

B21: 24G6D5 (antibody, V domains shown)
VH: B20 VH
VL: B20 VL
notes: purified mouse antibody
EC50 [3]: 0.68 nM | Top (MFI) [3]: 226000 MFI

B22: 62F6A8 (antibody, V domains shown)
VH: QVQIQQSGAELARPGASVMLSCKASGYTFTDYWMQWIKQRPGQGLEGIGAIYPGDGDTAYNQKFRGKATLTADKSSSTAYMQLNSLASEDSAVYFCARGATLLRPFPFWGQGTLVTVSA
VL: DIVMTQSHKFMSTSVGDRVSITCKASQDVSTAVAWYQQKPGQSPKLLIYSASYRYAGVPDRFTGSGSGTDFTFTISSVQAEDLAVYSCQQHYSIPPTFGGGTKLEIK
notes: purified mouse antibody
EC50 [3]: 0.68 nM | Top (MFI) [3]: 217000 MFI

B23: 61H8C1 (antibody, V domains shown)
VH: B22 VH with I4L, D31S, M34T, G56D, A59S, R65K, A87T, F95Y, F108Y
VL: B22 VL with A56T
notes: purified mouse antibody
EC50 [3]: 0.41 nM | Top (MFI) [3]: 203000 MFI
